# B1: recombinant human IL-12 (ligand)
# chain 1: RNLPVATPDPGMFPCLHHSQNLLRAVSNMLQKARQTLEFYPCTSEEIDHEDITKDKTSTVEACLPLELTKNESCLNSRETSFITNGSCLASRKTSFMMALCLSSIYEDLKMYQVEFKTMNAKLLMDPKRQIFLDQNMLAVIDELMQALNFNSETVPQKSSLEEPDFYKTKIKLCILLHAFRIRAVTIDRVMSYLNAS
# chain 2: IWELKKDVYVVELDWYPDAPGEMVVLTCDTPEEDGITWTLDQSSEVLGSGKTLTIQVKEFGDAGQYTCHKGGEVLSHSLLLLHKKEDGIWSTDILKDQKEPKNKTFLRCEAKNYSGRFTCWWLTTISTDLTFSVKSSRGSSDPQGVTCGAATLSAERVRGDNKEYEYSVECQEDSACPAAEESLPIEVMVDAVHKLKYENYTSSFFIRDIIKPDPPKNLQLKPLKNSRQVEVSWEYPDTWSTPHSYFSLTFCVQVQGKSKREKKDRVFTDKTSATVICRKNASISVRAQDRYYSSSWSEWASVPCS
# modifications: glycosylated (produced in CHO cells)
# Columns and labels:
# Test in all cases: cell-based or functional assay
# [1] = target: murine IL-12 receptor on mouse CD14- PBMC (mouse) (UniProt P97378)
# Chain of murine IL-12 receptor on mouse CD14- PBMC (mouse) (P97378 24-874): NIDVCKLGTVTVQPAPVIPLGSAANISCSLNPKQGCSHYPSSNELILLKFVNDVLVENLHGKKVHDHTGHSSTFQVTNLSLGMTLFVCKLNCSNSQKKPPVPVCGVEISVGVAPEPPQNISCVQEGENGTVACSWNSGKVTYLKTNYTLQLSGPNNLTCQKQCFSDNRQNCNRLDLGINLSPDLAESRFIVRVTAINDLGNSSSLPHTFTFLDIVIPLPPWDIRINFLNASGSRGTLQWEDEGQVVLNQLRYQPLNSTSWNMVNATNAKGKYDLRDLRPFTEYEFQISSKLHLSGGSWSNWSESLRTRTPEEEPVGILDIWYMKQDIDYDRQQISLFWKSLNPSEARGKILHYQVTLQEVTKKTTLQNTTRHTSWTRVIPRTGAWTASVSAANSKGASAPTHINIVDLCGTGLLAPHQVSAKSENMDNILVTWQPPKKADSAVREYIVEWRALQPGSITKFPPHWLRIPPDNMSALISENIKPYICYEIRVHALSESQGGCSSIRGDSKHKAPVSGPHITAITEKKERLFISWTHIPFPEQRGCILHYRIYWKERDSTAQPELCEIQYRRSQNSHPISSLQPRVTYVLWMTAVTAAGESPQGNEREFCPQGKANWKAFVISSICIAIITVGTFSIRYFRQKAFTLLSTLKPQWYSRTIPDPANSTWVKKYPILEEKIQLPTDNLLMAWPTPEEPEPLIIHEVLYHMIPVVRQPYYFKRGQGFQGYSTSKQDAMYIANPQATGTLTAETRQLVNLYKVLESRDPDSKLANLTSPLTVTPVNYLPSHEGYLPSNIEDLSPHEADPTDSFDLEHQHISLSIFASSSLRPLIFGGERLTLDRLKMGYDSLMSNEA
# [2] = target: rat IL-12 receptor on rat PBMC (rat)
# [3] = target: human IL-12 receptor on human CD14- PBMC (human, UniProt Q99665 24-862)
# Chain of human IL-12 receptor on human CD14- PBMC (Q99665 24-862): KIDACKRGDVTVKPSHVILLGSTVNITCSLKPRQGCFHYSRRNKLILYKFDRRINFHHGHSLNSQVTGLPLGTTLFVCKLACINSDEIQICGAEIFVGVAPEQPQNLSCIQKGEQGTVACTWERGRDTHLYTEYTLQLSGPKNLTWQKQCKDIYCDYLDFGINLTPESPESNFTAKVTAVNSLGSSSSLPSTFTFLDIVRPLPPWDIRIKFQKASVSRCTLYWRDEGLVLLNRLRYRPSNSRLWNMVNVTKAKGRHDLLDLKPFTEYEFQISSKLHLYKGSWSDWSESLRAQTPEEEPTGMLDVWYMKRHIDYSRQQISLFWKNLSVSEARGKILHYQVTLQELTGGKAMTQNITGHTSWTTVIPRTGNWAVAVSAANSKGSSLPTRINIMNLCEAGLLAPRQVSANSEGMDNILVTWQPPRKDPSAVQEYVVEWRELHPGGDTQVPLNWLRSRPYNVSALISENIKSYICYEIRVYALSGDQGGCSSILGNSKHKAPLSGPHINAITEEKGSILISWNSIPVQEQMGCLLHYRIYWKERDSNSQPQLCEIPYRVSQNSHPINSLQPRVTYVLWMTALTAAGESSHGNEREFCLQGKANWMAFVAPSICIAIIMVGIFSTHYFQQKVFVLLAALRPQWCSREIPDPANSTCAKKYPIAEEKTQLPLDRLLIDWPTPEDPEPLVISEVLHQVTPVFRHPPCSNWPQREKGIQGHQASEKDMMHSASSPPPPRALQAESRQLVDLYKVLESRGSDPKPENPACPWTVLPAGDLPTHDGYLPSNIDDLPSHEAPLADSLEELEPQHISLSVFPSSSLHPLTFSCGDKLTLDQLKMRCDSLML
binder,measurement,setting,value
B1,EC50 for stimulating IFN-γ secretion from PBMC (ELISA),[1],> 1 nM
same,EC50 for stimulating IFN-γ secretion from PBMC (ELISA),[2],> 1 nM
same,"EC50 for stimulating IFN-γ secretion from CD14- PBMC (ELISA, 16 hours)",[3],0.00251 nM
